Test results: the supplement of paper PMC10724198
± gives the standard deviation of the averaged measurements.

What was measured:
[1] = test system: Saccharomyces cerevisiae; assay: protein stability index of tFT-peptide fusion (C-terminal peptide) (PSI (0-1 scale)); higher = more stable (slower turnover)
Method: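 MPS profiling in S. cerevisiae of the tFT-X12 degron library: putative degron peptides plus stable controls, 12 aa, fused to the C-terminus of a sfGFP-mCherry timer. Cells are FACS-sorted into 8 mCherry/sfGFP bins and deep-sequenced. PSI runs from 0 (unstable) to 1 (stable). Backgrounds are wild type, das1Δ and doa10Δ at 30 °C, and wild type, das1Δ, cdc34-1 and cdc53-1 at 37 °C; 2-3 technical replicates each.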

[2] = test system: Saccharomyces cerevisiae; assay: as above; conditions: genetic background: wild type; temperature: 30 C
[3] = genetic background: cdc34-1, temperature: 37 C
[4] = genetic background: cdc53-1, temperature: 37 C
[5] = genetic background: das1 deletion, temperature: 30 C
[6] = genetic background: das1 deletion, temperature: 37 C
[7] = genetic background: doa10 deletion, temperature: 30 C
[8] = genetic background: wild type, temperature: 30 C
[9] = genetic background: wild type, temperature: 37 C
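Note: PSI is a weighted mean of sequencing reads over stability bins, variants kept only with over 10 reads, mCherry proximal and sfGFP distal, peptide attached via GGGS linker.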

| Sequence | protein stability index [1, 3] | protein stability index [1, 4] | protein stability index [1, 5] | protein stability index [1, 6] | protein stability index [1, 7] | protein stability index [1, 8] | protein stability index [1, 9] | protein stability index [2] |
| --- | --- | --- | --- | --- | --- | --- | --- | --- |
| GQLKGKDETEKK | 0.7023 ± 0.005 | 0.749 ± 0.027 | 0.616 ± 0.023 | 0.769 ± 0.029 | 0.645 ± 0.027 | 0.655 ± 0.051 | 0.691 ± 0.0094 | 0.191 ± 0.021 |
| GFCVRIFHGFLH | 0.634 ± 0.0084 | 0.7 ± 0.044 | 0.649 ± 0.018 | 0.7197 ± 0.0045 | 0.215 ± 0.0082 | 0.251 ± 0.04 | 0.501 ± 0.014 | 0.351 ± 0.01 |
| LVVEALFYVLVS | 0.036 ± 0.011 | 0.0563 ± 0.025 | 0.126 ± 0.025 | 0.181 ± 0.0096 | 0.0851 ± 0.0085 | 0.107 ± 0.021 | 0.124 ± 0.014 | 0.219 ± 0.054 |
| SCSHYRLICSRL | 0.9109 ± 0.0012 | 0.92 ± 0.015 | 0.752 ± 0.022 | 0.87 ± 0.012 | 0.6118 ± 0.0026 | 0.579 ± 0.033 | 0.7975 ± 0.0065 | 0.598 ± 0.25 |
| NKTTKNKKRKLS | 0.467 ± 0.081 | 0.612 ± 0.048 | 0.697 ± 0.027 | 0.656 ± 0.0059 | 0.0924 ± 0.038 | 0.125 ± 0.067 | 0.173 ± 0.011 | 0.159 ± 0.014 |
| CAIHIKIQMSVE | 0.0158 ± 0.0046 | 0.0731 ± 0.0079 | 0.0577 ± 0.019 | 0.136 ± 0.031 | 0.0457 ± 0.0051 | 0.0488 ± 0.02 | 0.128 ± 0.028 | 0.0995 ± 0.011 |
| GRSVLIGLIVRC | 0.417 ± 0.015 | 0.433 ± 0.014 | 0.332 ± 0.048 | 0.53715 ± 0.00026 | 0.437 ± 0.023 | 0.349 ± 0.022 | 0.479 ± 0.0083 | 0.4701 ± 0.0034 |
| LLLFLLLPPFPF | 0.543 ± 0.034 | 0.59 ± 0.006 | 0.449 ± 0.025 | 0.604 ± 0.026 | 0.437 ± 0.028 | 0.445 ± 0.019 | 0.57 ± 0.0068 | 0.504 ± 0.025 |
| YLTLAGFPLNLF | 0.666 ± 0.014 | 0.7399 ± 0.0022 | 0.649 ± 0.017 | 0.762 ± 0.0092 | 0.273 ± 0.0065 | 0.314 ± 0.017 | 0.531 ± 0.011 | 0.469 ± 0.041 |
| FFFFSMLIFCAV | 0.06041 ± 0.00022 | 0.106 ± 0.025 | 0.156 ± 0.016 | 0.226 ± 0.013 | 0.129 ± 0.01 | 0.136 ± 0.0094 | 0.192 ± 0.0081 | 0.191 ± 0.0034 |
| KYHLAAQLLVLL | 0.602 ± 0.022 | 0.649 ± 0.015 | 0.531 ± 0.022 | 0.6431 ± 0.0046 | 0.401 ± 0.011 | 0.408 ± 0.0063 | 0.556 ± 0.0067 | 0.459 ± 0.037 |
| FARYLRSMYILF | 0.546 ± 0.026 | 0.54989 ± 0.0003 | 0.5426 ± 0.0032 | 0.6721 ± 0.0049 | 0.369 ± 0.014 | 0.343 ± 0.019 | 0.462 ± 0.0051 | 0.409 ± 0.029 |
| HVLLSSSASIVV | 0.623 ± 0.015 | 0.6613 ± 0.0046 | 0.534 ± 0.019 | 0.6449 ± 0.0028 | 0.534 ± 0.03 | 0.529 ± 0.026 | 0.63 ± 0.047 | 0.536 ± 0.058 |
| FRAKRTVFQRNS | 0.671 ± 0.044 | 0.737 ± 0.039 | 0.668 ± 0.028 | 0.718 ± 0.01 | 0.2585 ± 0.0011 | 0.289 ± 0.0073 | 0.526 ± 0.021 | 0.441 ± 0.012 |
| GGWVIVFMVGRG | 0.523 ± 0.049 | 0.629 ± 0.084 | 0.362 ± 0.033 | 0.5982 ± 0.002 | 0.334 ± 0.0065 | 0.3607 ± 0.0035 | 0.535 ± 0.02 | 0.427 ± 0.02 |
| VFSWLAFGFFCS | 0.647 ± 0.0029 | 0.69 ± 0.012 | 0.61 ± 0.022 | 0.6821 ± 0.0028 | 0.588 ± 0.024 | 0.601 ± 0.023 | 0.642 ± 0.033 | 0.557 ± 0.091 |
| CLFLVFCFCVCS | 0.59488 ± 0.00049 | 0.62042 ± 0.00025 | 0.547 ± 0.031 | 0.596 ± 0.077 | 0.534 ± 0.018 | 0.512 ± 0.02 | 0.531 ± 0.032 | 0.498 ± 0.048 |
| MALAVRVVWCGA | 0.179 ± 0.014 | 0.179 ± 0.024 | 0.204 ± 0.034 | 0.328 ± 0.0034 | 0.173 ± 0.0053 | 0.207 ± 0.025 | 0.295 ± 0.0084 | 0.269 ± 0.014 |
| GLCVGRMFVRQI | 0.6614 ± 0.0031 | 0.7126 ± 0.0054 | 0.661 ± 0.018 | 0.7222 ± 0.005 | 0.248 ± 0.0031 | 0.263 ± 0.026 | 0.5463 ± 0.0024 | 0.454 ± 0.011 |
